# T1: BRL3T1025A, phospho-dead version of the BRL3 kinase domain
# T1 chain: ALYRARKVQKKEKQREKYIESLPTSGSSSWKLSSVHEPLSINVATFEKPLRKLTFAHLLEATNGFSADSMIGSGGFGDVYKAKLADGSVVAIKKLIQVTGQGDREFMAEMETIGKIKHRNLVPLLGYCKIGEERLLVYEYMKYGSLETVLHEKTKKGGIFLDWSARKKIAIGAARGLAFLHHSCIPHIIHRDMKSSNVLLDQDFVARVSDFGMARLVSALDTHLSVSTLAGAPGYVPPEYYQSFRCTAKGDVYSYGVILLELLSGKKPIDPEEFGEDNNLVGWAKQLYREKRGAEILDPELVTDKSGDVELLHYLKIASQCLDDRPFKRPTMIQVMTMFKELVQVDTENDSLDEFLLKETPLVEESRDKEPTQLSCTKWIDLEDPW
# T2: BRI1 (BRASSINOSTEROID … 1), BiFC negative control (Arabidopsis, UniProt O22476 24-1196)
# T2 construct: whole, on cells; not shown: the construct of this control is not described
# T2 sequence (looked up): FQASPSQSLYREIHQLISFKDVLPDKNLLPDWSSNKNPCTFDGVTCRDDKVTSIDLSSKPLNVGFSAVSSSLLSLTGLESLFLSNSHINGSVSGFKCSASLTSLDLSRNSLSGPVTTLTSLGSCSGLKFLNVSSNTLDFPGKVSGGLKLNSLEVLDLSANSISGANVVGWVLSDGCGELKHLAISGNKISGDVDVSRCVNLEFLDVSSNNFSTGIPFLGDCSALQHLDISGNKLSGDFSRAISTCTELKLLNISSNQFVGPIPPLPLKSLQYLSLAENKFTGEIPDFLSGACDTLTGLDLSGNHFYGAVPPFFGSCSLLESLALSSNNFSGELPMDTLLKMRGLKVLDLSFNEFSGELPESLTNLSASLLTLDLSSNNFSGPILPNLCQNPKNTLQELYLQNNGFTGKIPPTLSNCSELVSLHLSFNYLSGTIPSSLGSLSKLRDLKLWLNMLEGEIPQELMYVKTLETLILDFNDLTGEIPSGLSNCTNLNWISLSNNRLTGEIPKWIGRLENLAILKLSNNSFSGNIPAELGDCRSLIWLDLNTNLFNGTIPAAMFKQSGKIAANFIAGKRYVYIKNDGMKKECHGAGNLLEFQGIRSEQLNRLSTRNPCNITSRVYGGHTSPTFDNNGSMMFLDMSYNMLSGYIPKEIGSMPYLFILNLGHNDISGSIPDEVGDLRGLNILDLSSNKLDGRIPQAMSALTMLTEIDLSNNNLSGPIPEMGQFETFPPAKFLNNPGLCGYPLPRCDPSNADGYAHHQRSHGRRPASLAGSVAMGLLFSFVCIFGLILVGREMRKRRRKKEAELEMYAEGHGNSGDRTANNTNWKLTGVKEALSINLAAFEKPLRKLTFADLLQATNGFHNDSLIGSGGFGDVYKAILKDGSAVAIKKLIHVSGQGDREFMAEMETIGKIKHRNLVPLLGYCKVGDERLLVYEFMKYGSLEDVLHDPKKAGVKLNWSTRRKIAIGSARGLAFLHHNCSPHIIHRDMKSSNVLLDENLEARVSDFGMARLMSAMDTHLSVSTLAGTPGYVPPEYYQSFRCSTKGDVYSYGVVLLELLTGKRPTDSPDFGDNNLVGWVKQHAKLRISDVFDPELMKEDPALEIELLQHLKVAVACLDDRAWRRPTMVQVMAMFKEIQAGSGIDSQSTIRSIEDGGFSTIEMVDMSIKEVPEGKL
# T3: KIN7 kinase domain, GST- or MBP-tagged, from E. coli
# T3 chain: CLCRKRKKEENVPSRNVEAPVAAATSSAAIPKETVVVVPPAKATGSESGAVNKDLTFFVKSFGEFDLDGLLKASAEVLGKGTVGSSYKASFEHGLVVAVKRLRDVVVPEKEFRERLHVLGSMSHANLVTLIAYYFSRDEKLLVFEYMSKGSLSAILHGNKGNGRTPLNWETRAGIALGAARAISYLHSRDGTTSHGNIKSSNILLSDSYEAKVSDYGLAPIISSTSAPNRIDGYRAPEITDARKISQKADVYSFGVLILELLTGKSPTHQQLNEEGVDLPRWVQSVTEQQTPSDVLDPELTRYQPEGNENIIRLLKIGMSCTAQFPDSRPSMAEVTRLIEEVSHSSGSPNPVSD
# Assays:
# [1] = system: WT (Col-0) and brl3-2 mutant seedlings; test: Bikinin sensitivity assay (hypocotyl elongation); assay type: in vivo, Arabidopsis thaliana; settings: 6 d, LD
# Method: Chemicals used include; 1 μM BRZ220 (Gift from T. Nakano, RIKEN, Japan) or 50 μM Bikinin (200980, Sigma-Aldrich) for 6-d in control (long days, 22° C.) or high temperature (long days, 28° C.) conditions. Hypocotyl length were measured using the Image J software (v.1.48v) (https-/imagej.nih.gov/ij/).
# For hypocotyl elongation analysis, seedlings were grown in horizontally placed 0.5MS− media plates in controlled growth conditions (Aralab 600; long days 16:8h day/night cycle 60% relative humidity and 50-70 μmol m^−2 s^−1 of cool-white fluorescent light) at 22° C. or 28° C. temperature for 5-7d. Plates were photographed and hypocotyl length were measured using the ImageJ software (v.1.48v) (https:/imagej.nih.gov/ij/). For root growth analysis, seedlings were grown in vertically placed 0.5MS− media plates in controlled growth conditions (Aralab 600; long days 16:8h day/night cycle; 22° C.). MyROOT software (Betegón-Putzé et al., 2019) was used to compare root growth of plants. Lateral roots were manually counted under a stereozoom microscope in 9-d-old seedlings.
# Seedlings were grown in horizontally placed 0.5MS− media supplemented with or without 50 μM Bikinin (200980, Sigma-Aldrich) for 6-d in control (long days, 22° C.) or high temperature (long days, 28° C.) conditions. Hypocotyl length were measured using the Image J software (v.1.48v) (https://imagej.nih.gov/ii/).
# [2] = target: T1, BRL3T1025A, phospho-dead version of the …
# [3] = target: T2, BRI1 (BRASSINOSTEROID … 1), BiFC …; test: BiFC (split YFP) in Nicotiana benthamiana leaves, confocal microscopy
# [4] = target: T3, KIN7 kinase domain, GST- or MBP-tagged, …
molecule,measurement,setting,value
O=C(O)CCC(=O)Nc1ccc(Br)cn1 [Bikinin],hypocotyl elongation,"[1]; 50 μM Bikinin in media, WT and brl3-2 mutant, control (22° C.) and high temperature (28° C.)",promote hypocotyl elongation
same,rescue of brl3 conditional phenotypes (hypocotyl elongation) on elevated temperature,"[1]; 50 μM Bikinin, brl3-2 mutant, 28° C.",rescued brl3 conditional phenotypes
"KIN7 kinase domain, GST- or MBP-tagged, from E. coli (protein) CLCRKRKKEENVPSRNVEAPVAAATSSAAIPKETVVVVPPAKATGSESGAVNKDLTFFVKSFGEFDLDGLLKASAEVLGKGTVGSSYKASFEHGLVVAVKRLRDVVVPEKEFRERLHVLGSMSHANLVTLIAYYFSRDEKLLVFEYMSKGSLSAILHGNKGNGRTPLNWETRAGIALGAARAISYLHSRDGTTSHGNIKSSNILLSDSYEAKVSDYGLAPIISSTSAPNRIDGYRAPEITDARKISQKADVYSFGVLILELLTGKSPTHQQLNEEGVDLPRWVQSVTEQQTPSDVLDPELTRYQPEGNENIIRLLKIGMSCTAQFPDSRPSMAEVTRLIEEVSHSSGSPNPVSD","incorporation of 32P into BRL3 kinase (in vitro phosphorylation, autoradiography)",[2],KIN7 is not able to phosphorylate BRL3 domains given that the BRL3 phosphorylation pattern is lost when KIN7 is incubated with the phospho-dead version of BRL3 kinase
"BRL3 (BRASSINOSTEROID RECEPTOR LIKE 3), full length, fused to a half of YFP (BiFC construct) (receptor, also called BRL3 receptor; AT3G13380; not shown: half of YFP (YN or YC, both directions tested) from vectors pGTQL1211-YN / pGTQL1221-YC) RRLLSDDVNDTALLTAFKQTSIKSDPTNFLGNWRYGSGRDPCTWRGVSCSSDGRVIGLDLRNGGLTGTLNLNNLTALSNLRSLYLQGNNFSSGDSSSSSGCSLEVLDLSSNSLTDSSIVDYVFSTCLNLVSVNFSHNKLAGKLKSSPSASNKRITTVDLSNNRFSDEIPETFIADFPNSLKHLDLSGNNVTGDFSRLSFGLCENLTVFSLSQNSISGDRFPVSLSNCKLLETLNLSRNSLIGKIPGDDYWGNFQNLRQLSLAHNLYSGEIPPELSLLCRTLEVLDLSGNSLTGQLPQSFTSCGSLQSLNLGNNKLSGDFLSTVVSKLSRITNLYLPFNNISGSVPISLTNCSNLRVLDLSSNEFTGEVPSGFCSLQSSSVLEKLLIANNYLSGTVPVELGKCKSLKTIDLSFNALTGLIPKEIWTLPKLSDLVMWANNLTGGIPESICVDGGNLETLILNNNLLTGSLPESISKCTNMLWISLSSNLLTGEIPVGIGKLEKLAILQLGNNSLTGNIPSELGNCKNLIWLDLNSNNLTGNLPGELASQAGLVMPGSVSGKQFAFVRNEGGTDCRGAGGLVEFEGIRAERLEHFPMVHSCPKTRIYSGMTMYMFSSNGSMIYLDLSYNAVSGSIPLGYGAMGYLQVLNLGHNLLTGTIPDSFGGLKAIGVLDLSHNDLQGFLPGSLGGLSFLSDLDVSNNNLTGPIPFGGQLTTFPLTRYANNSGLCGVPLPPCSSGSRPTRSHAHPKKQSIATGMSAGIVFSFMCIVMLIMALYRARKVQKKEKQREKYIESLPTSGSSSWKLSSVHEPLSINVATFEKPLRKLTFAHLLEATNGFSADSMIGSGGFGDVYKAKLADGSVVAIKKLIQVTGQGDREFMAEMETIGKIKHRNLVPLLGYCKIGEERLLVYEYMKYGSLETVLHEKTKKGGIFLDWSARKKIAIGAARGLAFLHHSCIPHIIHRDMKSSNVLLDQDFVARVSDFGMARLVSALDTHLSVSTLAGTPGYVPPEYYQSFRCTAKGDVYSYGVILLELLSGKKPIDPEEFGEDNNLVGWAKQLYREKRGAEILDPELVTDKSGDVELLHYLKIASQCLDDRPFKRPTMIQVMTMFKELVQVDTENDSLDEFLLKETPLVEESRDKEPTQLSCTKWIDLEDPW",binding result,[3],no binding
"BRL3 kinase domain, GST- or MBP-tagged, from E. coli (protein) ALYRARKVQKKEKQREKYIESLPTSGSSSWKLSSVHEPLSINVATFEKPLRKLTFAHLLEATNGFSADSMIGSGGFGDVYKAKLADGSVVAIKKLIQVTGQGDREFMAEMETIGKIKHRNLVPLLGYCKIGEERLLVYEYMKYGSLETVLHEKTKKGGIFLDWSARKKIAIGAARGLAFLHHSCIPHIIHRDMKSSNVLLDQDFVARVSDFGMARLVSALDTHLSVSTLAGTPGYVPPEYYQSFRCTAKGDVYSYGVILLELLSGKKPIDPEEFGEDNNLVGWAKQLYREKRGAEILDPELVTDKSGDVELLHYLKIASQCLDDRPFKRPTMIQVMTMFKELVQVDTENDSLDEFLLKETPLVEESRDKEPTQLSCTKWIDLEDPW","incorporation of 32P into KIN7 kinase (in vitro phosphorylation, autoradiography)",[4],The image show and autoradiography revealing the incorporation of 32P into KIN7 kinase when incubated with BRL3
"BRL3T1025A, phospho-dead version of the BRL3 kinase domain (protein) ALYRARKVQKKEKQREKYIESLPTSGSSSWKLSSVHEPLSINVATFEKPLRKLTFAHLLEATNGFSADSMIGSGGFGDVYKAKLADGSVVAIKKLIQVTGQGDREFMAEMETIGKIKHRNLVPLLGYCKIGEERLLVYEYMKYGSLETVLHEKTKKGGIFLDWSARKKIAIGAARGLAFLHHSCIPHIIHRDMKSSNVLLDQDFVARVSDFGMARLVSALDTHLSVSTLAGAPGYVPPEYYQSFRCTAKGDVYSYGVILLELLSGKKPIDPEEFGEDNNLVGWAKQLYREKRGAEILDPELVTDKSGDVELLHYLKIASQCLDDRPFKRPTMIQVMTMFKELVQVDTENDSLDEFLLKETPLVEESRDKEPTQLSCTKWIDLEDPW","incorporation of 32P into KIN7 kinase (in vitro phosphorylation, autoradiography)",[4],"The phosphorylation in KIN7 kinase domain is lost when incubated with a phospho-dead version of BRL3, the BRL3T1025A"
